The values below come from patent publication US20260207704A1, “STAPLED PEPTIDES AND METHODS THEREOF” (priority 2022, published 2026).

*1 amine or outer side, *2 acyl side, *3 side chain or, on linkers, in order; H or OH if unused. Bridges are numbered along the chain shown (N, C = ends). Primed or numbered codes have the meaning given here. [ ]: non-standard residue; d: D form. The star is where a group is joined. PyrS2(6) = (S)-3-amino-1-((pent-4-en-1-yloxy)carbonyl)pyrrolidine-3-carboxylic acid, stapled with another olefin-containing amino acid residue through the olefin group, O=C(OCCCC=[*:3])N1CC[C@@](N[*:1])(C(=O)[*:2])C1; B5(4) = 2-amino-2-(pent-4-en-1-yl)hept-6-enoic acid, stapled through each of its two olefin groups with other olefin-containing amino acid residues, O=C(C(CCCC=[*:3])(CCCC=[*:4])N[*:1])[*:2]; PyrS2″ = (S)-3-amino-1-((pent-4-en-1-yloxy)carbonyl)pyrrolidine-3-carboxylic acid (olefin stapling residue), C=CCCCOC(=O)N1CC[C@@](N[*:1])(C(=O)[*:2])C1; PyrS2 = (S)-3-amino-1-((pent-4-en-1-yloxy)carbonyl)pyrrolidine-3-carboxylic acid, olefin staple residue, C=CCCCOC(=O)N1CC[C@@](N[*:1])(C(=O)[*:2])C1; PyrS2(3) = (S)-3-amino-1-((pent-4-en-1-yloxy)carbonyl)pyrrolidine-3-carboxylic acid, olefin residue, C=CCCCOC(=O)N1CC[C@@](N[*:1])(C(=O)[*:2])C1; PyrS2(5) = (S)-3-amino-1-((pent-4-en-1-yloxy)carbonyl)pyrrolidine-3-carboxylic acid, C=CCCCOC(=O)N1CC[C@@](N[*:1])(C(=O)[*:2])C1; B5(5) = 2-amino-2-(pent-4-en-1-yl)hept-6-enoic acid (two olefin arms), C=CCCCC(CCCC=C)(N[*:1])C(=O)[*:2]; B5(3) = 2-amino-2-(pent-4-en-1-yl)hept-6-enoic acid, two olefin arms, C=CCCCC(CCCC=C)(N[*:1])C(=O)[*:2]; Me2Mal = 2-carboxy-2-methylpropanoyl group on the Lys side chain, CC(C)(C(=O)O)C(=O)*; 2F3MeF″ = aromatic residue, Cc1cccc(C[C@H](N[*:1])C(=O)[*:2])c1F; Phe(3-COOH) = N[C@@H](Cc1cccc(C(=O)O)c1)C(=O)O; 2F3MeF = Cc1cccc(C[C@H](N[*:1])C(=O)[*:2])c1F; Phe(2-Cl) = N[C@@H](Cc1ccccc1Cl)C(=O)O; Bta = N[C@@H](Cc1csc2ccccc12)C(=O)O; αAllylPro = C=CC[C@@]1(C(=O)O)CCCN1; BztA = aromatic amino acid residue; tBuAla = CC(C)(C)C[C@H](N)C(=O)O; 3Thi = N[C@@H](Cc1ccsc1)C(=O)O; 2F3MeF(4) = Phe analogue; BztA″ = aromatic residue; Nle = CCCC[C@H](N)C(=O)O; TfeGA = not defined here; GlnR = not defined here; PL3 = not defined here; B5 = not defined here; Aib = CC(C)(N)C(=O)O Some results are limits rather than exact numbers.

Assay [1] addresses beta-catenin (human). The assay can be described thus: fluorescence polarization.
Assay [2] concerns the target beta-catenin (human). Briefly: cell-based or functional assay.

Chain of beta-catenin (human) (B6V8E6 146-665 limits assumed): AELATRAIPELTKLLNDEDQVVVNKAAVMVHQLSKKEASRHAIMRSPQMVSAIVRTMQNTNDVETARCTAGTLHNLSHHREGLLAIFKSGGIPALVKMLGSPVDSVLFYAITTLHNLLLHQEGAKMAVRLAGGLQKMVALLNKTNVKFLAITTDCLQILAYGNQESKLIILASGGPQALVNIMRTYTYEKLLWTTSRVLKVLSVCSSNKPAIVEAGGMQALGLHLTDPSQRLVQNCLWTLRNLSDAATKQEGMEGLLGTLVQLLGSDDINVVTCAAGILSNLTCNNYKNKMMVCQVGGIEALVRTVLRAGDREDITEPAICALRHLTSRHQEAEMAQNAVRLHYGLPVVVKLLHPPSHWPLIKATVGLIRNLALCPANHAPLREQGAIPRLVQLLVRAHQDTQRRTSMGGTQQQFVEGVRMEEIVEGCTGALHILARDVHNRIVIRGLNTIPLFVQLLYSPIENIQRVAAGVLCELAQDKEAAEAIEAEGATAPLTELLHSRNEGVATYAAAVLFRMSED

B1: I-77 (peptide)
peptide: Ac-[αAllylPro]D[tBuAla][B5(4)]D[Phe(3-COOH)]AAFK[PyrS2(6)][2F3MeF(4)][Bta][GlnR]A-NH2
modifications: staple 1-4 (inferred); bridge 10-14; not fully specified (residue 10, bridges); printed as Ac-PL3-Asp-Npg-B5-Asp-3COOHF-Ala-Ala-Phe-Lys*3-PyrS2-2F3MeF-BztA-GlnR*3-Ala-NH2; reading uncertain; also: -CH=CH- in each staple reduced to -CH2-CH2-
As a reminder, the IC50 is the point on the concentration scale where inhibition reaches its midpoint. Read a low IC50 as greater potency. B1: the IC50 with beta-catenin (human) [1] is < 50 nM.

B2: I-126 (peptide)
peptide: Ac-[αAllylPro]D[tBuAla][B5(4)]D[TfeGA]AAFK[PyrS2″][2F3MeF][Bta][GlnR][Aib]-NH2
modifications: bridge 10-14; not fully specified (bridges); reading uncertain; also: Lys*3 and GlnR*3 marked *3
B2: in the assay with beta-catenin (human) [1], the IC50 is < 50 nM. Further, the NanoBRET Abs IC50 (bin >3.0 uM) with beta-catenin (human) [2] was < 10000 nM.

B3: I-127 (peptide)
peptide: Ac-[αAllylPro]D[tBuAla][B5(4)]D[TfeGA]AAFK[PyrS2″][2F3MeF][Bta][GlnR][Aib]-NH2
modifications: bridge 10-14; not fully specified (bridges); reading uncertain; also: Lys*3 and GlnR*3 marked *3
As for B3, the IC50 in the assay with beta-catenin (human) [1] was < 50 nM. For the same molecule, the NanoBRET Abs IC50 (bin >3.0 uM) in the assay with beta-catenin (human) [2] was < 10000 nM.

B4: I-124 (peptide)
peptide: Ac-[αAllylPro]D[tBuAla][B5(4)]D[TfeGA]VAFK[PyrS2″][2F3MeF][Bta][GlnR]A-NH2
modifications: bridge 10-14; not fully specified (bridges); reading uncertain; also: Lys*3 and GlnR*3 marked *3
For the molecule B4, the half-inhibitory concentration (IC50) with beta-catenin (human) [1] was < 50 nM. Further, the NanoBRET Abs IC50 with beta-catenin (human) [2] is > 10000 nM.

B5: I-80 (peptide)
peptide: Ac-[αAllylPro]N[tBuAla][B5(4)]D[Phe(3-COOH)]AAFK[PyrS2(6)][3Thi][Bta][GlnR]A-NH2
modifications: staple 1-4 (inferred); bridge 10-14; not fully specified (residue 10, bridges); printed as Ac-PL3-Asn-Npg-B5-Asp-3COOHF-Ala-Ala-Phe-Lys*3-PyrS2-3Thi-BztA-GlnR*3-Ala-NH2; reading uncertain
Turning to B5, in the assay with beta-catenin (human) [1], the IC50 is < 50 nM.

B6: I-122 (peptide)
peptide: Ac-[αAllylPro]D[tBuAla][B5(4)]D[TfeGA]LAFK[PyrS2″][2F3MeF][Bta][GlnR]A-NH2
modifications: bridge 10-14; not fully specified (bridges); reading uncertain; also: Lys*3 and GlnR*3 marked *3
As to B6, in the assay with beta-catenin (human) [1], the IC50 was < 50 nM. For the same molecule, the NanoBRET Abs IC50 with beta-catenin (human) [2] is > 10000 nM.

B7: I-69 (peptide)
peptide: Ac-[αAllylPro]D[tBuAla][B5(3)]D[Phe(3-COOH)][Aib]AFK[PyrS2(3)][2F3MeF″][Bta][GlnR]A-NH2
modifications: bridge 10-14; not fully specified (bridges); printed as Ac-PL3-Asp-Npg-B5-Asp-3COOHF-Aib-Ala-Phe-Lys*3-PyrS2-2F3MeF-BztA-GlnR*3-Ala-NH2; reading uncertain
Regarding B7, the IC50 in the assay with beta-catenin (human) [1] is < 50 nM.

B8: I-137 (peptide)
peptide: Ac-[αAllylPro]D[tBuAla][B5]D[Phe(3-COOH)][Nle]AFK[PyrS2″][2F3MeF″][BztA″][GlnR]LS-NH2
modifications: bridge 10-14; not fully specified (bridges); printed as Ac-PL3-Asp-Npg-B5-Asp-3COOHF-nLeu-Ala-Phe-Lys*3-PyrS2-2F3MeF-BztA-GlnR*3-Leu-Ser-NH2; reading uncertain; also: Lys10 and GlnR14 marked *3
As to B8, the IC50 with beta-catenin (human) [1] is < 50 nM. In addition, the NanoBRET Abs IC50 (bin >1.5 uM) in the assay with beta-catenin (human) [2] is < 3000 nM.

B9: I-3 (peptide)
peptide: Ac-[αAllylPro]DL[B5(4)]DDAAFK[PyrS2(6)][3Thi][Bta][GlnR]-NH2
modifications: bridge 10-14; not fully specified (bridges); printed as Ac-PL3-Asp-Leu-B5-Asp-Asp-Ala-Ala-Phe-Lys*3-PyrS2-3Thi-BztA-GlnR*3-NH2; reading uncertain
For B9, the 50% inhibitory concentration (IC50) in the assay with beta-catenin (human) [1] is < 50 nM. Moreover, the NanoBRET Abs IC50 (bin >3.0 uM) with beta-catenin (human) [2] was < 10000 nM.

B10: I-135 (peptide)
peptide: Ac-[αAllylPro]D[tBuAla][B5]D[Phe(3-COOH)][GlnR](29N2spiroundecane)AFL[PyrS2][2F3MeF][Bta][GlnR]A-NH2
modifications: staple 1-4, 4-11 (inferred); not fully specified; printed as Ac-PL3-Asp-Npg-B5-Asp-3COOHF-[29N2spiroundecane]GlnR-Ala-Phe-Leu-PyrS2-2F3MeF-BztA-GlnR-Ala-NH2; reading uncertain; also: staple C=C reduced to CH2-CH2
As for B10, the IC50 in the assay with beta-catenin (human) [1] was > 1000 nM. Moreover, in the assay with beta-catenin (human) [2], the NanoBRET Abs IC50 was > 10000 nM.

B11: I-78 (peptide)
peptide: XDQXDXKAFKXXXQA
modifications: not fully specified; Ac-PL3-Asp-GlnR**3-B5-Asp-3COOHF-Lys**3-Ala-Phe-Lys*3-PyrS2-3Thi-BztA-GlnR*3-Ala-NH2
On to B11, for which the IC50 in the assay with beta-catenin (human) [1] is < 50 nM.

B12: I-4 (peptide)
peptide: Ac-[αAllylPro]DL[B5(5)]DDAAFK[PyrS2(5)][3Thi][Bta][GlnR]-NH2
modifications: bridge 10-14; not fully specified (bridges); printed as Ac-PL3-Asp-Leu-B5-Asp-Asp-Ala-Ala-Phe-Lys*3-PyrS2-3Thi-BztA-GlnR*3-NH2; reading uncertain
In the case of B12, the IC50 in the assay with beta-catenin (human) [1] was < 50 nM. Besides, the NanoBRET Abs IC50 with beta-catenin (human) [2] is > 10000 nM.

B13: I-70 (peptide)
peptide: Ac-[αAllylPro]D[tBuAla][B5(3)]D[Phe(3-COOH)][Nle]AFK[PyrS2(3)][3Thi][Bta][GlnR]A-NH2
modifications: bridge 10-14; not fully specified (bridges); printed as Ac-PL3-Asp-Npg-B5-Asp-3COOHF-nLeu-Ala-Phe-Lys*3-PyrS2-3Thi-BztA-GlnR*3-Ala-NH2; reading uncertain
B13: in the assay with beta-catenin (human) [1], the IC50 is < 50 nM.

B14: I-136 (peptide)
peptide: Ac-[αAllylPro]D[tBuAla][B5]D[Phe(3-COOH)]AAFK[PyrS2″][2F3MeF″][BztA″][GlnR]LS-NH2
modifications: bridge 10-14; not fully specified (bridges); printed as Ac-PL3-Asp-Npg-B5-Asp-3COOHF-Ala-Ala-Phe-Lys*3-PyrS2-2F3MeF-BztA-GlnR*3-Leu-Ser-NH2; reading uncertain; also: Lys10 and GlnR14 marked *3
With B14, the IC50 in the assay with beta-catenin (human) [1] was < 50 nM. Moreover, the NanoBRET Abs IC50 (bin >1.5 uM) with beta-catenin (human) [2] is < 3000 nM.

B15: I-88 (peptide)
peptide: Ac-[PL3]N[tBuAla][B5]D[Phe(3-COOH)]QAFK[PyrS2″][3Thi][BztA][GlnR]A-NH2
modifications: staple 1-4 (inferred); bridge 10-14; not fully specified (residue 10, bridges); printed as Ac-PL3-Asn-Npg-B5-Asp-3COOHF-Gln-Ala-Phe-Lys*3-PyrS2-3Thi-BztA-GlnR*3-Ala-NH2; reading uncertain; also: Lys10 and GlnR14 marked *3
Consider B15, for which the concentration for half-maximal inhibition (IC50) in the assay with beta-catenin (human) [1] is < 50 nM.

B16: I-52 (peptide)
peptide: Ac-[αAllylPro]D[tBuAla][B5(3)]D[Phe(3-COOH)]K(Me2Mal)AFL[PyrS2(3)][Phe(2-Cl)][Bta]K-NH2
modifications: not fully specified (residue 6, bridges); printed as Ac-PL3-Asp-Npg-B5-Asp-3COOHF-[Me2Mal]Lys-Ala-Phe-Leu-PyrS2-2ClF-BztA-Lys-NH2
B16: the IC50 in the assay with beta-catenin (human) [1] is < 50 nM.

B17: I-82 (peptide)
peptide: Ac-[PL3]D[tBuAla][B5]N[Phe(3-COOH)]AAFK[PyrS2″][3Thi][BztA][GlnR]A-NH2
modifications: staple 1-4 (inferred); bridge 10-14; not fully specified (residue 10, bridges); printed as Ac-PL3-Asp-Npg-B5-Asn-3COOHF-Ala-Ala-Phe-Lys*3-PyrS2-3Thi-BztA-GlnR*3-Ala-NH2; reading uncertain
For the molecule B17, in the assay with beta-catenin (human) [1], the IC50 was < 50 nM.

B18: I-67 (peptide)
peptide: Ac-[αAllylPro]D[tBuAla][B5]D[Phe(3-COOH)][Aib]AFK[PyrS2][3Thi][Bta][GlnR]A-NH2
modifications: staple 1-4, 4-11; lactam 10-14; not fully specified; printed as Ac-PL3-Asp-Npg-B5-Asp-3COOHF-Aib-Ala-Phe-Lys*3-PyrS2-3Thi-BztA-GlnR*3-Ala-NH2; reading uncertain
B18: the half-maximal inhibitory concentration (IC50) with beta-catenin (human) [1] is < 50 nM.

B19: I-84 (peptide)
peptide: Ac-[PL3]N[tBuAla][B5]D[Phe(3-COOH)]SAFK[PyrS2″][3Thi][BztA][GlnR]A-NH2
modifications: staple 1-4 (inferred); bridge 10-14; not fully specified (residue 10, bridges); printed as Ac-PL3-Asn-Npg-B5-Asp-3COOHF-Ser-Ala-Phe-Lys*3-PyrS2-3Thi-BztA-GlnR*3-Ala-NH2; reading uncertain
Consider B19, for which the IC50 with beta-catenin (human) [1] is < 50 nM.

B20: I-74 (peptide)
peptide: XDQXDXKAFKXXXQA
modifications: not fully specified; Ac-PL3-Asp-GlnR**3-B5-Asp-3COOHF-Lys**3-Ala-Phe-Lys*3-PyrS2-3Thi-BztA-GlnR*3-Ala-NH2
For B20, in the assay with beta-catenin (human) [1], the IC50 is < 50 nM.

B21: I-125 (peptide)
peptide: Ac-[αAllylPro]D[tBuAla][B5(4)]D[TfeGA]VAFK[PyrS2″][2F3MeF][Bta][GlnR]A-NH2
modifications: bridge 10-14; not fully specified (bridges); reading uncertain; also: Lys*3 and GlnR*3 marked *3
As for B21, the half-inhibitory concentration (IC50) in the assay with beta-catenin (human) [1] was < 50 nM. Moreover, in the assay with beta-catenin (human) [2], the NanoBRET Abs IC50 was > 10000 nM.

B22: I-129 (peptide)
peptide: Ac-[αAllylPro]D[tBuAla][B5(4)]D[TfeGA]AAFK[PyrS2(5)][2F3MeF][Bta][GlnR]V-NH2
modifications: bridge 10-14; not fully specified (bridges); reading uncertain; also: Lys*3 and GlnR*3 marked *3
Turning to B22, in the assay with beta-catenin (human) [1], the IC50 was < 50 nM. In addition, in the assay with beta-catenin (human) [2], the NanoBRET Abs IC50 (bin >3.0 uM) is < 10000 nM.
